Experimental data taken from patent US20220235144A1 (QILU PUGET SOUND BIOTHERAPEUTICS, published 2022).

T1: cSIRPαV1D1 with histidine tag (cynomolgus monkey (Macaca fascicularis), UniProt Q5TFQ8 30-146 (human entry))
T1 construct: also called cynomolgus monkey SIRPαV1D1; not shown: histidine tag
T1 chain: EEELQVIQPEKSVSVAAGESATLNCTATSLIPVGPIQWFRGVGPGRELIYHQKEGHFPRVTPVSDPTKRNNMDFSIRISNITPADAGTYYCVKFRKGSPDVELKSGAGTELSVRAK

T2: cSIRPαV2D1 with histidine tag (cynomolgus monkey (Macaca fascicularis), UniProt Q5TFQ8 30-146 (human entry))
T2 construct: also called cynomolgus monkey SIRPαV2D1; not shown: histidine tag
T2 chain: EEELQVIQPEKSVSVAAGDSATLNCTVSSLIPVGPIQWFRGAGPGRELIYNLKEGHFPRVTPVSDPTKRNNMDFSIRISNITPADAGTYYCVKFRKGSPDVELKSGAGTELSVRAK


How the values were obtained:
[1] = biological target: T3, hSIRPαV1D1 with histidine tag (human, UniProt P78324 31-147); experiment: SPR (Biacore 3000), IgG captured on anti-human IgG, His-tagged D1 analyte
T3 construct: analyte of the Biacore experiments; also called first immunoglobulin-like domain of human SIRPα variant V1; not shown: histidine tag
T3 sequence (P78324 31-147 limits assumed): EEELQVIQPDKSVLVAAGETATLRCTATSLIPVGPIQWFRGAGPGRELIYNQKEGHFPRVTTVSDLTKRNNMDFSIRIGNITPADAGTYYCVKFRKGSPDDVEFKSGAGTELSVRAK
Text: (§1) Goat anti-human IgG capture antibody (Jackson Laboratories; 109-005-098) was immobilized on the four flow cells in each sensor chip using standard amine coupling chemistry. About 8000 resonance units (RU) of this antibody was immobilized on each flow cell. Flow cells 2, 3, and 4 were used to analyze captured anti-SIRPα antibodies (about 250 to 300 RU were captured on each of flow cells 2, 3, and 4), while flow cell 1 was used as the reference flow cell. The analytes tested were hSIRPαV1D1, hSIRPαV2D1, cynomolgus monkey SIRPαV1D1 (cSIRPαV1D1), cSIRPαV2D1, hSIRPβ1D1, and hSIRPγD1, each of which also included a histidine tag. The sequences of cSIRPαV1D1 and cSIRPαV2D2 are provided in SEQ ID NOs: 143 and 142, respectively. To avoid confusion, the differences between the amino acid sequences of cSIRPαV1D1 and cSIRPαV2D1 are not the same as the differences between the amino acid sequences of hSIRPαV1D1 and hSIRPαV2D1. […] The amino acid sequence of hSIRPβ1D1 can be found in amino acids 30-148 of SEQ ID NO: 144, and the amino acid sequence of hSIRPγD1 can be found in amino acids 31-149 of SEQ ID NO: 141.
(§2) Generally, concentrations from about 0.1×KD to about 10×KD are appropriate for kinetic analysis. From one to six different concentrations were evaluated for each antibody:analyte interaction, depending on the comparisons to be made in an individual experiment. All analyte dilutions were prepared in HPS-EP buffer. Multiple blank (running buffer) injections were run and used to assess and subtract system artifacts. The association phase and dissociation phase for all analyte concentrations were monitored for 180 seconds and 300 seconds, respectively, at a flow rate of 50 μL/min. Between antibody samples, the surfaces of the flow cells were regenerated with 10 mM glycine, pH 1.5 using two injections, each lasting 12 seconds at a flow rate of 50 μL/min.
(§3) The data were analyzed using BIAevaluation software (Biacore, General Electric (GE)). The data was fit using the 1:1 Langmuir model.

[2] = biological target: T4, hSIRPαV2D1 with histidine tag (human); experiment: as above
T4 construct: analyte of the Biacore experiments; also called first immunoglobulin-like domain of human SIRPα variant V2; not shown: histidine tag
T4 sequence (chain, as listed by the source limits assumed): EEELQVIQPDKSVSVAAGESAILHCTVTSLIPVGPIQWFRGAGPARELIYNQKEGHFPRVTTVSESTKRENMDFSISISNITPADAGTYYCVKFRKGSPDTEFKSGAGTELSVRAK
Text: as §1, §2, §3

[3] = biological target: T1, cSIRPαV1D1 with histidine tag; experiment: as above
Text: as §1, §2, §3

[4] = biological target: T2, cSIRPαV2D1 with histidine tag; experiment: as above
Text: as §1, §2, §3

[5] = biological target: T5, hSIRPβ1D1 with histidine tag (human, UniProt O00241 30-148); experiment: as above
T5 construct: analyte of the Biacore experiments; also called hSIRPβD1; not shown: histidine tag
T5 sequence (O00241 30-148): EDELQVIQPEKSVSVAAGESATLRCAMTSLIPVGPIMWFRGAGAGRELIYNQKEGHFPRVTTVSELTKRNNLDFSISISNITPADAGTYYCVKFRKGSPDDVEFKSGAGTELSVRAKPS
Text: as §1, §2, §3

[6] = biological target: T6, hSIRPγD1 with histidine tag (human, UniProt Q9P1W8 31-149); experiment: as above
T6 construct: also called first immunoglobulin-like domain of human SIRP Gamma; not shown: histidine tag
T6 sequence (Q9P1W8 31-149): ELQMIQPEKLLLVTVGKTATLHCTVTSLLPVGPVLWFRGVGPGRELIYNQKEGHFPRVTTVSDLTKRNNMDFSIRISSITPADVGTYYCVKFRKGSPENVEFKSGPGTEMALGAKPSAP
Text: as §1, §2, §3

[7] = biological target: T7, hSIRPαV2 expressed on the cell surface (human, UniProt P78324 31-504); experiment: FACS competition on EXPI293 cells stably expressing hSIRPαV2: biotinylated hCD47:Fc (2.5 µg/ml) mixed with serial dilutions of the antibody, bound hCD47:Fc detected with streptavidin-PE (MFI); blocked ligand: hCD47:Fc
T7 construct: whole, on cells; also called human SIRPα variant V2
T7 sequence (P78324 other isoform, or with tags, fused parts or gaps limits assumed): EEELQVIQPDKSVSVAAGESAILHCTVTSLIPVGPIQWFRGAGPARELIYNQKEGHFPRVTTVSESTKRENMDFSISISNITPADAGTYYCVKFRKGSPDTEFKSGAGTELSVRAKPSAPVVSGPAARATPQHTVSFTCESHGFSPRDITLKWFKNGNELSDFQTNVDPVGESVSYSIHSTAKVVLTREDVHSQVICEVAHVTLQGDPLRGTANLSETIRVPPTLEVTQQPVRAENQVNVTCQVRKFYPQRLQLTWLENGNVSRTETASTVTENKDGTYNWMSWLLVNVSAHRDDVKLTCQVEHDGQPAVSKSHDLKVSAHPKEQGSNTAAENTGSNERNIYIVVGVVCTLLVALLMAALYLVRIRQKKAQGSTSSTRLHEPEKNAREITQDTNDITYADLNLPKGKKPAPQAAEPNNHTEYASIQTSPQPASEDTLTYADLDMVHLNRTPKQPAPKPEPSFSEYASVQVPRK
Method: The x axes show the antibody concentration in μg/ml. The y axes show mean fluorescence intensity (MFI) at about 572 nm (due to binding of biotinylated CD47:Fc, detected by a streptavidin-phycoerythrin conjugate).
Some of the anti-SIRPα antibodies described above were tested in vitro for their ability to inhibit binding of CD47 to hSIRPαV1 or hSIRPαV2 expressed on the surface of EXPI293™ cells stably transfected with DNA encoding these proteins. Briefly, stable transfectants expressing hSIRPαV1 or hSIRPαV2 were seeded into 96-well microtiter plates. […] After 30 minutes incubation, cells were washed, streptavidin-phycoerythrin (streptavidin-PE) was added, and cells were subjected to FACS to detect bound hCD47:Fc. Results were reported as a mean fluorescence intensity (MFI) using FlowJo software (FLOWJO, L.L.C., Ashland, Oreg., USA). FIGS. 4 and 5 show the MFI detected on the y axes of both panels and the antibody concentration on the x axes of both panels.

[8] = biological target: T7, hSIRPαV2 expressed on the cell surface; experiment: flow cytometry on primary human monocytes (FSC/SSC gate) in PBMCs expressing only SIRPαV2, antibody detected with APC-(Fab)2 goat anti-human IgG Fc (MFI at about 670 nm)
Method: FIG. 6: Binding of anti-SIRPα antibodies to T cells and monocytes. Methods are described in Example 4. […] The x axes show the antibody concentration in μg/ml. The y axes show mean fluorescence intensity (MFI) at about 670 nm (due to binding of allophycocyanin (APC)-conjugated (Fab)₂ goat anti-human IgG Fc-specific secondary antibody).
Some of the anti-SIRPα antibodies were tested in vitro for binding to primary T cells and monocytes in peripheral blood mononuclear cells (PBMCs). Briefly, PBMCs that expressed only SIRPα V2 were seeded in 96-well microtiter plates. Serial dilutions of anti-SIRPα antibodies were incubated with the cells on ice for 30 minutes. […] The cells were then subjected to FACs. T cells were gated based on their anti-CD4 or anti-CD8 binding (detected by FITC fluorescence), since T cells commonly express either CD4 or CD8. Monocytes were gated based on their forward scatter/side scatter (FSC/SSC) profile, since a characteristic FSC/SSC profile can identify monocytes. See, e.g., Marimuthu et al., Characterization of human monocytes subsets by whole blood flow cytometry analysis, J. Vis. Exp. (140), e57941, doi:10.3791/57941 (2018). The binding of anti-SIRPα antibodies to each population was reported as a mean fluorescence intensity (MFI) of the APC channel (670 nm).

Row | Kd [1] [nM] | Kd [2] [nM] | Kd [3] [nM] | Kd [4] [nM] | Kd [5] [nM] | Kd [6] [nM] | IC50 (read off the curve) [7] [µg/mL] | EC50 (read off the curve) [8] [µg/mL] | Binder
1 | 75 | 2.11 | 155 | ~426 | 6.63 | ~457 | – | – | Ab9_G2 (antibody, human IgG2, V domains shown, same antibody as Ab9_G4 except human IgG2 CH1, hinge, CH2 and CH3) VH: EVQLVESGGGLVKPGGSLRLSCAASGFTFSSYVMSWVRQTPGKGLEWVATISSGGTYTYYPNSVKGRFTLSRDNAKNSLYLQMNSLRAEDTAVYYCVSSMTGSSFDYWGQGTTVTVSS VL: DIVITQSPASLAVSLGERATISCRASESVDSYGNSFMHWYQQKPGQPPKLLIYRASNLESGVPDRFSGSGSRTDFTLTINPLQAEDVATYYCHQSSEQLPWTFGGGTKVEIKR
2 | 21.4 | 0.956 | 8.59 | – | 0.217 | 140 | – | ~0.03 | Ab24_G4 (antibody, human IgG4 S228P, kappa, human IgG4 format) heavy: not shown light: DIVLTQSPASLAVSLGERATISCRASESVDLYGTSFMHWYQQKPGQPPKLLIYRASNLESGVPDRFSGSGSRTDFTLTINPLQAEDVATYYCHQSSDELPWTFGGGTKVEIKRTVAAPSVFIFPPSDEQLKSGTASVVCLLNNFYPREAKVQWKVDNALQSGNSQESVTEQDSKDSTYSLSSTLTLSKADYEKHKVYACEVTHQGLSSPVTKSFNRGEC
3 | 348 | 4.6 | 197 | ~727 | 29 | ~5020 | – | – | Ab12_G4 (antibody, human IgG4 S228P, kappa, human IgG4 format) heavy: not shown light: DIVLTQSPASLAVSLGERATISCRASESVDSYGNSFMHWYQQKPGQPPKLLIYRASNLESGVPDRFSGSGSRTDFTLTINPLQAEDVATYYCHQSADLPWTFGGGTKVEIKRTVAAPSVFIFPPSDEQLKSGTASVVCLLNNFYPREAKVQWKVDNALQSGNSQESVTEQDSKDSTYSLSSTLTLSKADYEKHKVYACEVTHQGLSSPVTKSFNRGEC
4 | 411 | 6.02 | 256 | ~1050 | 44.3 | ~6200 | – | – | Ab8_G4 (antibody, human IgG4 S228P, kappa, V domains shown, human IgG4 format) VH: EVQLVESGGGLVKPGGSLRLSCAASGFTFSSYVMSWVRQTPGKGLEWVATISSGGTYTYYPESVKGRFTLSRDNAKNSLYLQMNSLRAEDTAVYYCASQLTGSEFDYWGQGTTVTVSS VL: DIVMTQSPASLAVSLGERATISCRASESVDSYGNSFMHWYQQKPGQPPKLLIYRASNLESGVPDRFSGSGSRTDFTLTINPLQAEDVATYYCHQSADLPWTFGGGTKVEIKR

Second part, the binder before the results:

Row | Binder | Kd [1] [nM] | Kd [2] [nM] | Kd [3] [nM] | Kd [4] [nM] | Kd [5] [nM] | Kd [6] [nM] | IC50 (read off the curve) [7] [µg/mL] | EC50 (read off the curve) [8] [µg/mL]
5 | Ab2_G4 (antibody, human IgG4 S228P, kappa, V domains shown, human IgG4 format) VH: EVQLVESGGGLVKPGGSLRLSCAASGFTFSSYVMSWVRQTPGKGLEWVATISSGGTYTYYPDSVKGRFTLSRDNAKNSLYLQMNSLRAEDTAVYYCASSVDGSAFDYWGQGTTVTVSS VL: DIVITQSPASLAVSLGERATISCRASESVDSYGMSFMHWYQQKPGQPPKLLIYRASNLESGVPDRFSGSGSRTDFTLTINPLQAEDVATYYCHQSSENLPWTFGGGTKVEIKR | 226 | 3.06 | 145 | ~709 | 53.6 | ~944 | – | –
6 | Ab11_G2 (antibody, human IgG2, V domains shown, same antibody as Ab11_G4 except human IgG2 CH1, hinge, CH2 and CH3) VH: EVQLVESGGGLVKPGGSLRLSCAASGFTFSSYVMSWVRQTPGKGLEWVATISSGGTYTYYPDSVKGRFTLSRDNAKNSLYLQMNSLRAEDTAVYYCASQLTGSEFDYWGQGTTVTVSS VL: DIVITQSPASLAVSLGERATISCRASESVDSYGNSFMHWYQQKPGQPPKLLIYRASNLESGVPDRFSGSGSRTDFTLTINPLQAEDVATYYCHQSGDLPWTFGGGTKVEIKR | 125 | 1.92 | 98 | ~475 | 8.58 | ~3060 | – | –
7 | Ab1_G2 (antibody, human IgG2, V domains shown) VH: EVQLVESGGGLVKPGGSLRLSCAASGFTFSSYVMSWVRQTPGKGLEWVATISSGGTYTYYPSSVKGRFTLSRDNAKNSLYLQMNSLRAEDTAVYYCASSLTGSSFDYWGQGTTVTVSS VL: DIVLTQSPASLAVSLGERATISCRASESVDLYGTSFMHWYQQKPGQPPKLLIYRASNLESGVPDRFSGSGSRTDFTLTINPLQAEDVATYYCHQSSDELPWTFGGGTKVEIKR | 50.7 | 2.51 | 26.9 | 287 | 1.39 | 168 | – | –
8 | Ab9_G4 (antibody, human IgG4 S228P, kappa, V domains shown, human IgG4 format) VH: EVQLVESGGGLVKPGGSLRLSCAASGFTFSSYVMSWVRQTPGKGLEWVATISSGGTYTYYPNSVKGRFTLSRDNAKNSLYLQMNSLRAEDTAVYYCVSSMTGSSFDYWGQGTTVTVSS VL: DIVITQSPASLAVSLGERATISCRASESVDSYGNSFMHWYQQKPGQPPKLLIYRASNLESGVPDRFSGSGSRTDFTLTINPLQAEDVATYYCHQSSEQLPWTFGGGTKVEIKR | 102 | 2.97 | 183 | ~432 | 6.43 | ~616 | ~0.4 | –
9 | Ab4_G4 (antibody, human IgG4 S228P, kappa, human IgG4 format) heavy: not shown light: DIVITQSPASLAVSLGERATISCRASESVDSYGNSFMHWYQQKPGQPPKLLIYRASNLESGVPDRFSGSGSRTDFTLTINPLQAEDVATYYCHQSADLPWTFGGGTKVEIKRTVAAPSVFIFPPSDEQLKSGTASVVCLLNNFYPREAKVQWKVDNALQSGNSQESVTEQDSKDSTYSLSSTLTLSKADYEKHKVYACEVTHQGLSSPVTKSFNRGEC | 307 | 4.04 | 165 | ~714 | 24.3 | ~4560 | – | –
